# According to paper PMC7695343:
# Target: integrin αvβ5 on human colon adenocarcinoma HT-29 cells (human (endogenous in HT-29)) (UniProt P06756)
# Chain of UniProt P06756 (P06756 31-1048, chain 1 of 2): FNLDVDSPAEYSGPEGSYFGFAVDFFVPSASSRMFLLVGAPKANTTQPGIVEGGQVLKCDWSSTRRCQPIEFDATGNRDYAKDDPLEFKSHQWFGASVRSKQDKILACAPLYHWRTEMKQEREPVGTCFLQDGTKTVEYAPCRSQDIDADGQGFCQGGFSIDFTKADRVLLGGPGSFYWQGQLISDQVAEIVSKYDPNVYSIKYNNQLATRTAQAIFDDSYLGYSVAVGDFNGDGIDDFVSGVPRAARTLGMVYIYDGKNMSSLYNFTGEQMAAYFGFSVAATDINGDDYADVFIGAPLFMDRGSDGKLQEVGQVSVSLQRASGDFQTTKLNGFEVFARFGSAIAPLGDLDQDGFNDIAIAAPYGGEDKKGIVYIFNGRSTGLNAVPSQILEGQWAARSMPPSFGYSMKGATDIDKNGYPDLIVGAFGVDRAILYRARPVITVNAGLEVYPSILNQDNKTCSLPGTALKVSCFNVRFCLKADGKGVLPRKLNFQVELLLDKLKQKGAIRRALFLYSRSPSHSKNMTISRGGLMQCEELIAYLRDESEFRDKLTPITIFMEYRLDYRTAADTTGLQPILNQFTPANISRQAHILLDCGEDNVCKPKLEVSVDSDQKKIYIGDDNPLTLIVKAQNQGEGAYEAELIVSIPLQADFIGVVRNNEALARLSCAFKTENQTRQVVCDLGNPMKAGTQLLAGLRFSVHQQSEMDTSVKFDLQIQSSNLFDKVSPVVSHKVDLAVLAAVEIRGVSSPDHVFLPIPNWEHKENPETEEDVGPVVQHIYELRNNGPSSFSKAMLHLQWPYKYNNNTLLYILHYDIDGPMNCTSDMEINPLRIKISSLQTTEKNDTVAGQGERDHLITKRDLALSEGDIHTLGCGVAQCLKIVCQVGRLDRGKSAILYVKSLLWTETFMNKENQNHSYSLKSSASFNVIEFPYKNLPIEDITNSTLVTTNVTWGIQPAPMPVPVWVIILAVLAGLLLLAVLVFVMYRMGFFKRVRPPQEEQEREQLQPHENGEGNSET
# Chain of UniProt P06756 (P18084 24-799, chain 2 of 2, further chain): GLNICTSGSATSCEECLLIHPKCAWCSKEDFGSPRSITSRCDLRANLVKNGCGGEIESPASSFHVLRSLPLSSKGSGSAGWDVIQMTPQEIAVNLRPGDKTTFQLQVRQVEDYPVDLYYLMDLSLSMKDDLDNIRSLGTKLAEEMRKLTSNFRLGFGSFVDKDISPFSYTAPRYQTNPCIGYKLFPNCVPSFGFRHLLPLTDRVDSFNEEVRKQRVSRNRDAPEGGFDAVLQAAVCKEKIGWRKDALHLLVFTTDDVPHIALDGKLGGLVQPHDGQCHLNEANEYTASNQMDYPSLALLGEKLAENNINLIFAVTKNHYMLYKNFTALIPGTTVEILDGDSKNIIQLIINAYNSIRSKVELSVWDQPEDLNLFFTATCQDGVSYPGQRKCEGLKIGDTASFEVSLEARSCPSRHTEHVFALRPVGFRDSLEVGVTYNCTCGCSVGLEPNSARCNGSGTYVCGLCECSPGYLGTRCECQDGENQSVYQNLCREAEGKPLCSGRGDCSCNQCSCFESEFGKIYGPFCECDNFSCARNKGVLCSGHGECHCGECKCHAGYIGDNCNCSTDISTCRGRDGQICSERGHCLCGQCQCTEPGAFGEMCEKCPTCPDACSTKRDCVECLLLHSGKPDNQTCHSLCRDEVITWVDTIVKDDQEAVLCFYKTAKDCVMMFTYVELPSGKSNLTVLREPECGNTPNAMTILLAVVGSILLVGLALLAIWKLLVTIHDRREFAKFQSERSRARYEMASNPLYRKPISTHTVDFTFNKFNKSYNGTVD
substance,measurement,value
"Echistatin (Ech), recombinant wild type with 6xHis-tag (natural protein)",IC50 of inhibition of HT29 cell adhesion to immobilized vitronectin (blocks αvβ5 with vitronectin),0.286 µM
